Results: patent US20080154022A1
pIC50: −log10 of the molar value.

biological target: bFGF receptor on BHK-21 (baby hamster kidney derived) cells (hamster); assay: displacement of [^125I]-bFGF from BHK-21 cells, radioreceptor assay, IC50 read from the graph

pIC50 | Substance
9.40 | Biotinylated bFGF (monobiotinylated recombinant human bFGF) (from UniProt P09038 143-288) (ligand)
9.92 | Recombinant human basic fibroblast growth factor (bFGF) (from UniProt P09038 143-288) (ligand)
9.25 | Complex of bio-bFGF and the OX26/streptavidin conjugate (from UniProt P09038 143-288; P22629 37-163)
